Results on one molecule are retold here after US20220332804A1 (CSL INNOVATION, published 2022).

Residue numbers refer to the chain shown, from its start.

Holding throughout (experiment): SPR; KD relative to WT C2;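 further: biacore SPR at 37 °C, anti-C2 mAbs captured on an anti-human IgG chip, alanine or serine C2 surface mutants tested, KD from 1:1 fit compared with wild-type C2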
(In general: SPR reads the build-up and loss of mass on a sensor chip optically.)

One assay addresses T1, human C2 G432A (human, UniProt P06681 21-752).
T1 sequence: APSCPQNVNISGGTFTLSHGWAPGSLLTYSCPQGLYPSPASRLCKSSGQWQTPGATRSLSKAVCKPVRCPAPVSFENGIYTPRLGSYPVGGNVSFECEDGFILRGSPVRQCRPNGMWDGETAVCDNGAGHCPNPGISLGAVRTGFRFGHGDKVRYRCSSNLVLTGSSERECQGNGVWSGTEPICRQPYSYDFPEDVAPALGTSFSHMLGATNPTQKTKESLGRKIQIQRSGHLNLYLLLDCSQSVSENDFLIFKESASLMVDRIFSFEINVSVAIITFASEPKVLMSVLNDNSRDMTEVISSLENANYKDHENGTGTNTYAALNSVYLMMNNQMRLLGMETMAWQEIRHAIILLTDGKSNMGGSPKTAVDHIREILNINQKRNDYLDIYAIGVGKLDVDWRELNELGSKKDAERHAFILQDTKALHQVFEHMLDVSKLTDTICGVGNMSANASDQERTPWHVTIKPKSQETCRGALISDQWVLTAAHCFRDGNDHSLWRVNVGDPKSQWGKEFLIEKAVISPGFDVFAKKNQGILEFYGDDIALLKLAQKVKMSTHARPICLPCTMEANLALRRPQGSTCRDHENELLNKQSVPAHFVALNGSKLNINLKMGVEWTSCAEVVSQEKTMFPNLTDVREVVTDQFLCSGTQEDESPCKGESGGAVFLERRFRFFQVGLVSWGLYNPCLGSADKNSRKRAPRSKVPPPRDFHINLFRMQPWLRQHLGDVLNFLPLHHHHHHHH

The target in a further assay is T2, human C2 T442A (human, UniProt P06681 21-752).
T2 sequence: T1 sequence with A412G, T422A

A further assay concerns the target T3, human C2 V448A (human, UniProt P06681 21-752).
T3 sequence: T1 sequence with A412G, V428A

The next assay deals with T4, human C2 H451A (human, UniProt P06681 21-752).
T4 sequence: T1 sequence with A412G, H431A

B1: RF16-214 (antibody, V domains shown)
VH: EVQLLESGGGLVQPGGSLRLSCAASGFTFSWYQMMWVRQAPGKGLEWVSRIYPSGGGTAYADSVKGRFTISRDNSKNTLYLQMNSLRAEDTAVYYCARDAGYGDNWGQGTLVTVSS
VL: QSALTQPPSVSVSPGQTASITCSGDKLGEKYASWYQQKAGQSPVMVIYQDRKRPSGIPERFSGSNSGNTATLTISGTQAMDEADYYCQAWDTRAVVFGGGTKLTVLG
With B1, the Fold diff with human C2 G432A came out at 1 fold; with human C2 T442A, 2 fold; in the assay with human C2 V448A, 0 fold; with human C2 H451A, 4 fold.
